Source: paper doi:10.1101/2023.04.13.536802 (bioRxiv, 2023)
Where no end group is shown, it is not given here.

Target: recombinant transferrin receptor 1 (TfR1) ectodomain (residues C89-F763) (UniProt Q62351 89-763)
Assay: BLI

Sequence of recombinant transferrin receptor 1 (TfR1) ectodomain (residues C89-F763) (Q62351 89-763): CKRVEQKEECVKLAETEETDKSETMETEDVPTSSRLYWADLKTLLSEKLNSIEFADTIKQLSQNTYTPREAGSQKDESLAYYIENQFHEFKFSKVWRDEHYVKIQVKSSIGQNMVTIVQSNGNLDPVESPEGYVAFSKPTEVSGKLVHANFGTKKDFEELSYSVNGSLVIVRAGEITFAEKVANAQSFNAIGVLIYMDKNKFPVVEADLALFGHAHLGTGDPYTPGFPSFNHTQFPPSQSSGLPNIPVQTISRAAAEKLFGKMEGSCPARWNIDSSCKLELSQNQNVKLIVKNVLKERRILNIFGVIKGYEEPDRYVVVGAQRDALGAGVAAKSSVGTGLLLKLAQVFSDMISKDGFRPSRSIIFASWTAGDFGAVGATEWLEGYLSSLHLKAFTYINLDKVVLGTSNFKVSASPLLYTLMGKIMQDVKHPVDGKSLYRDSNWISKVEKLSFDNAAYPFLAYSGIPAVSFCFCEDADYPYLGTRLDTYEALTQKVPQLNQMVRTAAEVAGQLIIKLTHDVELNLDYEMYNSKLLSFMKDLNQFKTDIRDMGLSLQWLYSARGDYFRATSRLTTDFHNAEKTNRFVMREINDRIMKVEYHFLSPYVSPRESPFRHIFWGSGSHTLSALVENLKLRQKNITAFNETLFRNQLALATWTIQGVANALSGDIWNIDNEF

Kd: 26 nM
Binder: THRPPMWSPVWP (also: biotin, position not given here) [T12, 12-mer peptide that binds transferrin receptor 1]
